# B1: Glicentin: One of enteroglucagons, a peptide comprising 69 amino acid residues; human glicentin (SEQ ID NO: 1) prepared by genetic engineering (protein)
# chain: RSLQDTEEKSRSFSASQADPLSDPDQMNEDKRHSQGTFTSDYSKYLDSRRAQDFVQWLMNTKRNRNNIA
# Key:
# [1] = system: motor activity of gastrointestinal tracts; assay: Motor activity of gastrointestinal tracts in the post-feed period in dogs sutured with strain gauge transducers; type: in vivo
# Method: An experiment was performed as described below in order to examine the action of glicentin on a motility of gastrointestinal tracts.
# Six hybrid dogs weighing 16-18 kg were sutured with strain gauge transducers (manufactured by Star Medical, F121S) at a site of the gastric antrum 4 cm from the pyloric ring, a site of the duodenum for the main incurrent pancreatic duct and a site of the jejunum 10 cm from the Treitz's ligamentum, respectively, to measure the contractile force intensity of the circular muscle. Recovery period for the suture was 2 weeks.
# Three of the 6 dogs were intravenously given over 1 hour 15 ml of a physiological saline solution in which 400 pmol of glicentin had been dissolved per kg of bodyweight. The remaining three received an aqueous physiological solution containing no glicentin in the same way as above as a control for comparison. The dogs were fed on 15 g of a solid diet (SD®, manufactured by Oriental Yeast K.K.) and 15 g of Vitaone® (manufactured by Nihon Pet Food K.K. and Kyodo Shiryo K.K.) per kg of bodyweight simultaneously with the intravenous administration.
# Then, the motor activity of gastrointestinal tracts and length of the post-feed period were measured. Intensity of the contraction in the post-feed period was integrated for the two-hour measurements and evaluated in comparison with the mean level of the signal peak in phase 3 motor activity of the gastrointestinal tracts in hunger and taken as a motor index.
# male BALB/c mice = assay: Intraperitoneal administration to mice, observation of appearance; type: in vivo; settings: 10 mg/kg intraperitoneally, male BALB/c mice (6 weeks age)
# [2] = 400 pmol/kg i.v. over 1 hour, post-feed contraction integrated over two hours relative to phase 3 peak in hunger, average ± standard error
# [3] = 400 pmol/kg i.v. over 1 hour, versus control
molecule,measurement,setting,value
B1,Length of post-feed period,"[1]; 400 pmol/kg glicentin intravenously over 1 hour, fed simultaneously, average ± standard error",13.6 ± 1.0 h
same,"Motor index, duodenum",[1]; [2],0.675 ± 0.4
same,"Motor index, gastric antrum",[1]; [2],0.878 ± 0.1
same,"Motor index, jejunum",[1]; [2],1.087 ± 0.2
same,Influence upon the length of the post-feed period (in words),[1]; [3],no influence upon the length of the post-feed period
same,Post-feed motility in the vestibulum of stomach (in words),[1]; [3],inhibited the post-feed motility in the vestibulum of stomach
same,Change in appearance,male BALB/c mice,no change in appearance is observed
